Experimental data taken from the supplement of paper PMC12764529.
± gives the half width of the 95% confidence interval.

Legend:
[1] = folding stability dG unfold from trypsin proteolysis; higher = more stable
Outline: (§1)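 Mini-proteins designed to be under 80 residues and free of cysteine were carried in a PA-tagged cDNA display construct and digested with trypsin and with chymotrypsin. Each protease was applied at 11 threefold-diluted concentrations, alongside a no-protease condition, before sequencing. K50 came from Bayesian fitting of the sequencing counts, and unfolding free energy was obtained by comparing it with a sequence-predicted unfolded-state K50 and a shared folded-state K50, for each protease separately or for both together. Designs were retained only if their AlphaFold2 dimer inter-PAE exceeded 15.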

[2] = folding stability dG unfold (combined trypsin and chymotrypsin); higher = more stable
Outline: as §1

[3] = folding stability dG unfold from chymotrypsin proteolysis; higher = more stable
Outline: as §1

| Sequence | folding stability dG unfold [1] [kcal/mol] | folding stability dG unfold [2] [kcal/mol] | folding stability dG unfold [3] [kcal/mol] |
| --- | --- | --- | --- |
| SAGGSAEVRVVAEPLPDDYLLVLVEFDSPEVLPEALEAIPGVVEVRAYRFLEEGRPRYRVLALVPASAGGSA [r15_344_TrMRF] | 1.4 ± 0.024 | 1.8 ± 0.06 | 2.02 ± 0.059 |
| SAGGSAGGGITAKEAAELLEKYLKEKGYDYEVKIEEVDPVNPTVKITVTFPDGSKLEITLPIVDSAGGSAGG [r6_617_TrMRF] | 3.02 ± 0.16 | 3.09 ± 0.2 | 3.21 ± 0.34 |
| SAGGLKDILKELGFPIKSVTVQPMPMPNGMPMRTVSITFENPNGPKFEIEVMVMPNGEVMIDIEWVKPSAGG [r13_818_TrROS] | 2.23 ± 0.092 | 2.48 ± 0.22 | 2.69 ± 0.11 |
| SAGGSVPERAKVVTLVLRFEEPESLGIPLLERLLRELGFPDAVLGEVRIEPLPDGSVVAVVPLLVPSAGGSA [r2_346_TrMRF] | 2.42 ± 0.041 | 2.91 ± 0.059 | 3.196 ± 0.02 |
| SAGSPPDDVREEETEEVVPSPDGSLTVTRTPVVRRPGEEEEVRTETTVYFPPSDETLTSESLTRFPGASAGG [r19_387_JUSTAS] | 0.356 ± 0.049 | 0.695 ± 0.095 | 0.895 ± 0.051 |
| SAMTITVPPDVSLEQIAKLLGYPNLKSFTKRKVTPNLTPATLTVPEDPNKVIKVLYRPADNYTEVIVLQSAG [r14_713_JUSTAS] | 1.02 ± 0.1 | 0.921 ± 0.16 | 0.822 ± 0.3 |
| SKTIYIPKNVPIDYILKVVKEAEKKGKPVKIVIETYNNPKVIEALKKAGYKVEIKEDKKKKITLIVVYPESA [r9_759_TrMRF] | 3.33 ± 0.2 | 4.2 ± 0.39 | 4.35 ± 0.11 |
| SAGGSAGGSSYTVSEDPNSSSTTITDPVTGRTVLRSPSSWTVVDPETGEEKSFPAGTVVTLPESAGGSAGGS [r12_584_JUSTAS] | -0.146 ± 0.13 | 0.724 ± 0.042 | 1.06 ± 0.056 |
| SAGGSAGGSAGGKWRPITFPFPDGWYLQIYMNPDGDVKAEIYNPDGKPVEKTFPPGEPIFSAGGSAGGSAGG [r7_215_TrROS] | 1.25 ± 0.027 | 1.55 ± 0.054 | 1.67 ± 0.02 |
| SAGGRIEVRPLEGSGAVLVRILDPELRKKLEEKFPDVTEILFPVEGAEDIPLEELRDRAIKEIEELIDSAGG [r19_298_TrMRF] | 1.4 ± 0.051 | 0.956 ± 0.059 | 0.187 ± 0.056 |
| SAGGSAEIEITVTVPPEMTEEEIKEQLEAELQRLTGEKVEIVDIRVEEVNGELTVTVKIKIEPAPPSAGGSA [r15_105_TrROS_Hall] | 3.04 ± 0.28 | 2.85 ± 0.3 | 2.71 ± 0.2 |
| SAGGSAGGGIEEELRRVLPEDATVTIEEVPERPLLVVTVTFPERAETRTFTFSPESPEKLIEALSAGGSAGG [r6_612_JUSTAS] | 0.82 ± 0.049 | 0.679 ± 0.12 | 0.628 ± 0.12 |
| SAGGSAGGSAGMTITLPNGAEITSIEINEDGTITITVRVNGKTLTLTITVTLPPPPPEEPSAGGSAGGSAGG [r17_421_TrROS_Hall] | 3.67 ± 0.17 | 3.69 ± 0.18 | 3.54 ± 0.16 |
| SAGDQTITIKIPNAPPGSRVQIMLFDPGKIKGFHEIDPDDPKEVEIKIELPPYTIMIYVADGNVFPIPISAG [r5_646_TrROS] | 1.94 ± 0.12 | 2.46 ± 0.21 | 2.82 ± 0.059 |
| SALPLPSSAKVELEWELVGVDPGSKGAKVYYRRTLKVTFPTGSLTVTYLVEYDPETGTFSWSITSVSPESAG [r14_293_TrMRF] | 4.1 ± 0.19 | 5.38 ± 0.21 | 5.65 ± 0.095 |
| SAGGGMSVSELKKFFPNLKPGATFVLKDPNSDRTGTGTLLSDGTIKVQLPGSEVTVPDDTLVVSISASAGGS [r8_162_JUSTAS] | 0.585 ± 0.043 | 0.321 ± 0.13 | -0.237 ± 0.27 |
| SAGGSAGGSSPVRMVATIPLPDGTTITVEAEIVRLPDGTILIKTPSGEIIEVPPDVPVEFFPESAGGSAGGS [r20_227_JUSTAS] | 1.78 ± 0.057 | 2.23 ± 0.054 | 2.45 ± 0.052 |
| SAGGSPSMSPEELAKREKERILEELRKKGGSKTIPMKVEITVPDEKGNTTKYNIEINITVEVPEDKLSAGGS [r16_550_JUSTAS] | 0.622 ± 0.082 | 0.974 ± 0.15 | 1.31 ± 0.1 |
| SAGGNGRKKVKIDISIMIPIPPNDMPPEQRMKLAKELAERIARSLARKEGADPDKIDEVKVRFHIFPWSAGG [r13_5_TrROS] | 2.03 ± 0.027 | 2.44 ± 0.072 | 2.65 ± 0.067 |
| SMPIEVRVDLERLEDGTLLAVIEIRHPDVQVAEDAAIELARELFPEDVELRIETTPDGRVIAPILLPLPESA [r9_646_TrMRF] | 3.14 ± 0.14 | 2.58 ± 0.22 | 1.74 ± 0.17 |
| SAGGSEKVTIELEFRNPETGELIATVKIELERLPNGEIKAKIEFTNLPEGVELSEEMKKLLEELLKSAGGSA [r2_7_TrROS_Hall] | 2.5 ± 0.31 | 2.77 ± 0.34 | 2.93 ± 0.19 |

| Sequence | folding stability dG unfold [1] [kcal/mol] | folding stability dG unfold [2] [kcal/mol] | folding stability dG unfold [3] [kcal/mol] |
| --- | --- | --- | --- |
| SAGGAVYRNPATGEWYEPGMTEEEREARARAALPPPTVTITVTVTVVFEDNGTTVTATATVTLTVEGSAGGS [r16_387_TrROS_Hall] | 2.97 ± 0.11 | 3.44 ± 0.1 | 3.83 ± 0.12 |
| SAGGSAGGSAGGMVIVKVHLPNGNTLTFVFPGMTLDEIREELASQGGKIKEIEIVPMENSAGGSAGGSAGGS [r10_572_TrROS] | 2.17 ± 0.07 | 2.28 ± 0.079 | 2.323 ± 0.02 |
| SPNLKPVEFPIKIPGYKIRRVSIWKSPDGPVEIFVRFPDGWYYEFEIPPNGDIQPMKITEAVPPDEDKKNSA [r9_1075_TrROS] | 1.57 ± 0.086 | 1.38 ± 0.16 | 1.14 ± 0.17 |
| SAGGSAIWIPADEIRELAKEPGLEVEKEPQPDGMLHFTIKNPKNGKRITIVVWDPENGWWHIMPIPSAGGSA [r15_442_TrROS] | 0.947 ± 0.019 | 0.928 ± 0.083 | 0.854 ± 0.098 |
| SAGGKTVTTPEQILELIKENPGKTYTITITVPKENQKKVEELKKALEEAGLTVEENENGTLTVTIKPSAGGS [r16_335_TrROS_Hall] | 2.2 ± 0.17 | 3.42 ± 0.28 | 3.89 ± 0.14 |
| SAGGSMSPWHWARHIAKKLRKKFPPGKKVRIKIEYDDGPVEFEIPPGEWIPIPSNAPIEILNIKVKSAGGSA [r2_391_TrROS] | 1.97 ± 0.034 | 2.25 ± 0.11 | 2.36 ± 0.11 |
| SAGGSAGGSALPTSPTYAVVKVPDKYYIVKTKVGDIIFIPDENGIPVPVKVEPFYPIAPEALSAGGSAGGSA [r18_244_TrMRF] | -0.297 ± 0.16 | -0.258 ± 0.18 | -0.515 ± 0.4 |
| SAGGSAGEIEGEEAAKLVEDALRALDPNVRVEYEPLPGEKPLLLVRVYRVDPESGAETPLATLLIGSAGGSA [r15_682_TrMRF] | 1.78 ± 0.05 | 2.4 ± 0.077 | 2.69 ± 0.066 |
| SAGGSAGGSAGKLPPGAKVEEVFEVEIEVTYLNPDTGEEVEKEKITVRVVKVDGKLVIEFSAGGSAGGSAGG [r11_415_TrROS_Hall] | 1.39 ± 0.11 | 2.04 ± 0.25 | 2.79 ± 0.31 |
| SAGGSAKVVEIELVEVRRNANGERIVRVRIKLPNGEERTIEMSEEELKELLAKLPPNVEIVAIEEVSAGGSA [r15_339_TrROS_Hall] | 1.42 ± 0.077 | 1.56 ± 0.15 | 1.76 ± 0.043 |
| SAGGEYTVVSVLEERKDPATGKTVTLELLKDPNSNVLYRRVTTTDPANPDVVTTTLYDAAGNKVSTVSSAGG [r13_658_JUSTAS] | 2.17 ± 0.046 | 2.48 ± 0.095 | 2.62 ± 0.055 |
| SKVKIVKVEYDKETNVVTVTIYDEKTKKKIEIRYTPGKVEIVVEIDGKKLVLKFKTKEEALEAAKKLLKKSA [r9_527_TrROS_Hall] | 2.72 ± 0.089 | 3.61 ± 0.2 | 3.94 ± 0.079 |
| SAGGSAGGPLENDIPIPLTVPLPGPGTAELFLLPSTGEVLALVEGKPYLVSLEDLKDGVFRLGLSAGGSAGG [r6_939_TrMRF] | -0.577 ± 0.36 | 0.576 ± 0.12 | 0.989 ± 0.17 |
| SAGGSAGGSAGGKEITIMMPSPEAIKKLLPPGWKITNIEPIGRDPEDGYPYYMITFKPDSAGGSAGGSAGGS [r10_256_TrROS] | 1.43 ± 0.018 | 1.3 ± 0.057 | 1.11 ± 0.042 |
| SAGGMIEIEYNPDQGYFRITVWPMNPKNGKPKSKEIPIPFEGDPEEALDKVKDLIDDHPGYHVDIEPYSAGG [r13_284_TrROS] | 0.657 ± 0.068 | 1.05 ± 0.14 | 1.27 ± 0.13 |
| SAGGSAGGSPETLTITVKEKPVRIEINGKVIEVKPGDTITIPKELANNIRIEVNEDGSITITPSAGGSAGGS [r20_150_TrROS_Hall] | 1.92 ± 0.2 | 1.6 ± 0.19 | 1.24 ± 0.11 |
| SAGLIKIERTGDKLTITIPLKGAPPGAQVRIMVFTDGKVEEHWIPPGKEVEITIPPDNIHIFIQIYPPDSAG [r5_867_TrROS] | 3.22 ± 0.38 | 3.33 ± 0.32 | 3.15 ± 0.14 |
| SAGGSAKVKIYLIKLPPNGNPLEVIKKVKEKGGNAIIVSGPGLHAVIEADEPEEAAKKAKEILEKLSAGGSA [r15_546_TrMRF] | 0.361 ± 0.1 | 0.292 ± 0.097 | 0.121 ± 0.2 |
| SAGGSAGGSAGGTAEIYFPNFPIRIDSVQLSPEKNHVQVSMENPDGPPVKGTMPPKDGILSAGGSAGGSAGG [r7_427_TrROS] | 1.58 ± 0.031 | 0.903 ± 0.042 | -0.127 ± 0.027 |
| SFIRKDPDGTYVIMGRMPPNMPIEEFLENLPGFKIKDVEYQPDPENGYWYFTLVITPRGKVKIDWVPMGDSA [r9_238_TrROS] | 2 ± 0.03 | 2 ± 0.11 | 1.91 ± 0.11 |
| SAGGSLPPGQWIFMIQLEIEPPNGNTWPFNIMVPPDNVEEQAKEIADRLRENGLKVKIEITDVMPVSAGGSA [r2_274_TrROS] | 2.22 ± 0.13 | 3.09 ± 0.13 | 3.5 ± 0.083 |
